Results: patent US20110008302A1, “Compositions and methods for immortalizing cells and screening for anti-cancer agents” (priority 2007, published 2011)
Substitutions are numbered along the chain they refer to. Names and notes keep the numbering of the source.

B1: Ndy1 fragment (aa 171-707): bacterially expressed mouse Ndy1 fragment containing the JmjC, CXXC and PHD domains (protein, UniProt Q6P1G2 171-707, looked up, fragment)
chain: MWPQHLKEKQTEATNALAEMKYPKVKKYCLMSVKGCFTDFHIDFGGTSVWYHVFRGGKIFWLIPPTLHNLALYEEWVLSGKQSDIFLGDRVERCQRIELKQGYTFFIPSGWIHAVYTPVDSLVFGGNILHSFNVPMQLRIYEIEDRTRVQPKFRYPFYYEMCWYVLERYVYCVTQRSYLTQEYQRELMLIDAPRKTSVDGFSSDSWLDMEEESCEQQPQEEEEEEEDKEEEGDGADKTPKPPTDDPTSPTSTPPEDQDSTGKKPKAPAIRFLKRTLSNESEESVKSTSMPTDDPKTPTGSPATEVSTKWTHLTEFELKGLKALVEKLESLPENKKCVPEGIEDPQALLEGVKNVLKEHVDDDPTLAITGVPVVSWPKKTAKNRVVGRPKGKLGPASAVKLAANRTTAGARRRRTRCRKCEACLRTECGECHFCKDMKKFGGPGRMKQSCIMRQCIAPVLPHTAVCLVCGEAGKEDTVEEEEGKFNLMLMECSICNEIIHPGCLKIKESEGVVNDELPNCWECPKCNHAGKTGKQKRG
B2: 171-707 Ndy1 fragment containing the Y221A mutation: Ndy1 fragment with Y221A mutation, which abolishes the demethylase activity (protein)
chain: B1 chain with Y51A
modifications: left off: small tags and cut ends
B3: Ndy1: JmjC domain-containing histone H3 demethylase, overexpressed from retroviral constructs or immunoprecipitated (protein, UniProt Q6P1G2 1-1309, looked up)
Lysine-specific demethylase 2B: MEAEKDSGRRLRAIDRQRYDENEDLSDVEEIVSVRGFSLEEKLRSQLYQGDFVHAMEGKDFNYEYVQREALRVPLVFRDKDGLGIKMPDPDFTVRDVKLLVGSRRLVDVMDVNTQKGTEMSMSQFVRYYETPEAQRDKLYNVISLEFSHTKLEHLVKRPTVVDLVDWVDNMWPQHLKEKQTEATNALAEMKYPKVKKYCLMSVKGCFTDFHIDFGGTSVWYHVFRGGKIFWLIPPTLHNLALYEEWVLSGKQSDIFLGDRVERCQRIELKQGYTFFIPSGWIHAVYTPVDSLVFGGNILHSFNVPMQLRIYEIEDRTRVQPKFRYPFYYEMCWYVLERYVYCVTQRSYLTQEYQRELMLIDAPRKTSVDGFSSDSWLDMEEESCEQQPQEEEEEEEDKEEEGDGADKTPKPPTDDPTSPTSTPPEDQDSTGKKPKAPAIRFLKRTLSNESEESVKSTSMPTDDPKTPTGSPATEVSTKWTHLTEFELKGLKALVEKLESLPENKKCVPEGIEDPQALLEGVKNVLKEHVDDDPTLAITGVPVVSWPKKTAKNRVVGRPKGKLGPASAVKLAANRTTAGARRRRTRCRKCEACLRTECGECHFCKDMKKFGGPGRMKQSCIMRQCIAPVLPHTAVCLVCGEAGKEDTVEEEEGKFNLMLMECSICNEIIHPGCLKIKESEGVVNDELPNCWECPKCNHAGKTGKQKRGPGFKYASNLPGSLLKEQKMNRDNKEGQEPAKRRSECEEAPRRRSDEHPKKVPADGILRRKSDDVHLRRKRKYEKPQELSGRKRASSLQTSPGSSSHLSPRPPLGSSLSPWWRSSLTYFQQQLKPGKEDKLFRKKRRSWKNAEDRLSLANKPLRRFKQEPEDDLPEAPPKTRESDQSRSSSPTAGPSTEGAEGPEEKKKVKMRRKRRLVNKELSKELSKELNHEIQKTESTLAHESQQPIKSEPESENDEPKRPLSHCERPHRFSKGLNGTPRELRHSLGPGLRSPPRVMSRPPPSASPPKCIQMERHVIRPPPISPPPDSLPLDDGAAHVMHREVWMAVFSYLSHRDLCVCMRVCRTWNRWCCDKRLWTRIDLNRCKSITPLMLSGIIRRQPVSLDLSWTNISKKQLSWLINRLPGLRDLVLSGCSWIAVSALCSSSCPLLRTLDVQWVEGLKDAQMRDLLSPPTDNRPGQMDNRSKLRNIVELRLAGLDITDVSLRLIIRHMPLLSKLQLSYCNHINDQSINLLTAVGTTTRDSLTEVNLSDCNKVTDLCLSFFKRCGNICHIDLRYCKQVTKEGCEQFIAEMSVSVQFGQVEEKLLQKLS

Legend:
H3K4me3 peptide = assay: Fluorescence coupled demethylation assay; format: biochemical; conditions: bacterially expressed fragment
Experimental: (§1) For assay of in vitro histone demethylation, cells from a confluent 15 cm dish were harvested and the cell pellet was resuspended in 5 packed cell volumes of Buffer A (10 mM HEPES pH 7.9, 1.5 mM MgCl2, 10 mM KCl, 0.5 mM DTT, and 0.2 mM PMSF) and centrifuged at 1500 rpm for 5 minutes. Buffer A was added up to a final of 3 original packed cell volumes and the suspension was incubated on ice for 10 minutes. Cells were transferred to a Wheaton A Dounce homogenizer and lysed with 10 strokes. Nuclei were pelleted by centrifuging at maximum speed for 5 min in a microcentrifuge. Nuclei were resuspended in Buffer B (20 mM HEPES, pH 7.9, 100 mM KCl, 0.5 mM DTT and 0.2 mM PMSF) and disrupted by sonication. After preclearing with 20 μl protein A-agarose beads, the supernatant was incubated with either myc- or hemagglutinin-specific monoclonal antibody (5 μg/sample) and 20 μl protein A-agarose beads overnight at 4° C., the sample was washed three times with 1 ml Buffer B and the purified immune complex was incubated overnight at 4° C. with myc or HA peptide to release Ndy1/KDM2B from the beads. Demethylation reactions were carried out in 10 mM HEPES pH 7.9, 50 mM NaCl, 1 mM α-ketoglutarate, 2 mM ascorbate, 30-70 μM Fe(NH4)2(SO4)2, 0.25 mg/ml BSA and contained 6 μg of bulk histone per 90 μl reaction. Reactions were incubated at 37° C. for 1-3 hours and analyzed by 18% SDS-PAGE and Western-blotting with histone specific antibodies.
(§2) Fluorescent assays were carried out as previously described (Couture, J. F., et al. (2007) Nat Struct Mol Biol 14, 689-95) under the reaction conditions above. One unit of enzyme activity is determined as amount of Ndy1 that produces 1 μmol of formaldehyde per min, incubated with 340 μM peptide substrate at 37° C. under the above conditions. The sequences of the H3K4(me3) and H3K36(me2) peptides used in the biochemical studies were: ART-K(me3)-QTARKST (SEQ ID NO: 79) and ATGGV-K(me2)-KPHRY (SEQ ID NO: 80) respectively and were synthesized at Tufts University Core facility.
(§3) Using a fluorescence coupled demethylation assay, a bacterially expressed mouse Ndy1 fragment containing the JmjC, CXXC and PHD domains (aa 171-707) was here shown to demethylate both H3K36me2 and H3K4me3 peptides, with high and low efficiencies respectively (FIG. 20 panel B and FIG. 22). Cloning and bacterial expression of Ndy1 fragments was accomplished using fragments 1-701 and 171-701 of mouse Ndy1, which were amplified using specific primers and were cloned directly into pET102/DTOPO vector (Invitrogen) using of the TOPO-cloning methodology. The C-terminally His-tagged fusion proteins were purified from BL21(DE3) cells using Ni2+agarose beads (QIAGEN) and according to the manufacturer instructions. Flow cytometry analysis of histone modifications was determined in HEK293 cells transfected with either pIRES-GFP-empty vector (Stratagene) or the same vector containing the wild type or the H283Y JmjC domain point mutant of Ndy1. After 48 hours, cells were harvested and fixed in 1% paraformaldehyde for 10 min. Cells were washed twice with PBS, and were permeabilized with 0.5% saponin in PBS for 20 min and were blocked with 3% bovine serum albumin (BSA). […] (Alexa Fluor 635, Invitrogen, #A31577) followed by fluorescence-activated cell sorting using a CyAn high performance flow cytometer (Dako Cytomation).

H3K36me2 peptide = assay: Fluorescence coupled demethylation assay; format: biochemical; conditions: for efficiency of demethylation of H3K36me2 peptide: bacterially expressed fragment
Experimental: as §1, §2, §3

HEK293 cells = assay: Flow cytometry of global histone modifications in HEK293 cells transfected with Ndy1; format: cell-based, human; conditions: HEK293 cells transiently transfected with Ndy1
Description: as §3, with “Ndy1.” for “Ndy1. After 48 hours, cells were harvested and fixed in 1% paraformaldehyde for 10 min. Cells were washed twice with PBS, and were permeabilized with 0.5% saponin in PBS for 20 min and were blocked with 3% bovine serum albumin (BSA).”
To confirm the activity and specificity of the Ndy1 histone demethylase in vivo, flow cytometry was used to quantitatively assess the global levels of histone H3K36me2 and H3K4me3 in HEK293 cells transiently transfected with Ndy1.

bulk histone = assay: In vitro histone demethylation assay with immunoprecipitated native Ndy1 (Western blot); format: biochemical; conditions: mouse and human Ndy1 immunoprecipitated from MEFs and IMR90 cells
MEFs = assay: Ndy1 overexpression in serially passaged MEFs, real time PCR of p16Ink4a and p19Arf mRNA; format: cell-based, mouse
Experimental: FIG. 14 panel B is a set of bar graphs of MEFs overexpressing Ndy1 that were plated at a concentration of 10^5 cells per 6 cm dish and serially passaged. In passage P5, P10, and P15 total mRNA was isolated and analyzed by real time PCR for the relative mRNA levels of p16^Ink4a and p19^Arf. The graphs show the fold decrease of p16^Ink4a and p19^Arf mRNAs in MEFs that overexpress Ndy1 normalized to control empty-vector transduced cells from 3 independent infections.
RNA was isolated with the RNeasy mini kit (Qiagen #74104). cDNAs of these mRNAs were synthesized with RETROscript (Ambion #AM1710). PCR reactions were carried out in triplicate with iQ SYBRGreen Supermix (Bio-Rad #170-8882) in an Opticon2 continuous fluorescence detector (MJ Research). The following set of primers have been used to amplify the mouse: Ezh2: F-5′-ACTGCTGG CACCGTCTGATG-′3 (SEQ ID NO: 38) and R-5′-TCCTGAGAA ATAATCTCCCCACAG-′3 (SEQ ID NO: 39),
p16^Ink4a: F-5′-GTGTGCATGA CGTGCGGG-′3 (SEQ ID NO: 42) and R-5′-GCAGTTCGA ATCTGCACCGTAG-′3 (SEQ ID NO: 43), p19^Arf: F-5′GCTCTGGCT TTCGTGAACATG-′3 (SEQ ID NO: 44) and R-5′-TCGAATCTG CACCGTAG′TTGAG'3 (SEQ ID NO: 45),
Replicative senescence is characterized by the dramatic upregulation of p16^Ink4a (>100-fold, FIG. 16) and p19^Arf (>10-fold). Since, p16^Ink4a inhibits the cyclin D/CDK4-6 complex that mediates the phosphorylation of Rb at Ser807/811, and Ndy1 promotes the phosphorylation of Rb at this site as shown in Examples herein, whether the phosphorylation of Rb in Ndy1-transduced MEFs can be linked to a defect in the induction of the Ink4a/Arf locus was tested. To address this question, the relative levels of p16^Ink4a and p19^Arf mRNA in passaged MEFs stably expressing Ndy1 were determined in examples herein.

| Molecule | efficiency of demethylation of H3K4me3 peptide (H3K4me3 peptide) | efficiency of demethylation of H3K36me2 peptide (H3K36me2 peptide) | histone H3K4me3 demethylase activity in vivo (HEK293 cells) | histone H3K36me2 demethylase activity in vivo (HEK293 cells) | H3K4me3 demethylase activity (bulk histone) | H3K36me2 demethylase activity (bulk histone) | attenuation of induction of p16Ink4a (MEFs; passage 5, relative to empty vector transduced MEFs) | reduction of induction of p19Arf (MEFs; passage 10) | attenuation of induction of p16Ink4a (MEFs; passage 10, relative to empty vector transduced MEFs) [%] | reduction of induction of p19Arf (MEFs; passage 15) [%] | attenuation of induction of p16Ink4a (MEFs; passage 15, relative to empty vector transduced MEFs) [%] | specific activity towards the H3K36me2 versus the H3K4me3 peptide (H3K36me2 peptide; Ndy1 fragments expressed in E. coli) |
| --- | --- | --- | --- | --- | --- | --- | --- | --- | --- | --- | --- | --- |
| B1 | low | high |  |  |  |  |  |  |  |  |  |  |
| B2 | failed to demethylate | failed to demethylate |  |  |  |  |  |  |  |  |  |  |
| B3 |  |  | weak | strong | weak | strong | about 55% | about 43% | ~62 | ~34 | ~90 | three times higher |
